Data published in PMC8041777, “Protein kinase A controls the hexosamine pathway by tuning the feedback inhibition of GFAT-1” (Nature Communications, 2021).
Positions count from the first letter of the chain named. Numbers in names are those of the source.

B1: GFAT-1 (human GFAT-1 isoform 2, hGFAT1) (Homo sapiens; R306H) (protein)
chain: CGIFAYLNYHVPRTRREILETLIKGLQRLEYRGYDSAGVGFDGGNDKDWEANACKIQLIKKKGKVKALDEEVHKQQDMDLDIEFDVHLGIAHTRWATHGEPSPVNSHPQRSDKNNEFIVIHNGIITNYKDLKKFLESKGYDFESETDTETIAKLVKYMYDNRESQDTSFTTLVERVIQQLEGAFALVFKSVHFPGQAVGTRRGSPLLIGVRSEHKLSTDHIPILYRTGKDKKGSCNLSRVDSTTCLFPVEEKAVEYYFASDASAVIEHTNRVIFLEDDDVAAVVDGHLSIHRIKRTAGDHPGRAVQTLQMELQQIMKGNFSSFMQKEIFEQPESVVNTMRGRVNFDDYTVNLGGLKDHIKEIQRCRRLILIACGTSYHAGVATRQVLEELTELPVMVELASDFLDRNTPVFRDDVCFFLSQSGETADTLMGLRYCKERGALTVGITNTVGSSISRETDCGVHINAGPEIGVASTKAYTSQFVSLVMFALMMCDDRISMQERRKEIMLGLKRLPDLIKEVLSMDDEIQKLATELYHQKSVLIMGRGYHYATCLEGALKIKEITYMHSEGILAGELKHGPLALVDKLMPVIMIIMRDHTYAKCQNALQQVVARQGRPVVICDKEDTETIKNTKRTIKVPHSVDCLQGILSVIPLQLLAFHLAVLRGYDVDFPRNLAKSVTVE
notes: full length, internal His6-tag between Gly299 and Asp300 (kept), expressed in Sf21 insect cells (MultiBac), Ni-NTA and SEC purified
B2: GFAT-1 (human GFAT-1 isoform 2, hGFAT1) (Homo sapiens; S308D) (protein)
chain: B1 chain with H287R, S289D
notes: as for B1
B3: GFAT-1 (human GFAT-1 isoform 2, hGFAT1) (Homo sapiens; L508R) (protein)
chain: B1 chain with H287R, L489R
notes: as for B1

Substrate: NC(=O)CC[C@H](N)C(=O)O
Experiment: purified protein
Format: biochemical, Homo sapiens
Settings: 6 mM Frc6P, 1 mM APAD, 50 mM KCl, 100 mM potassium phosphate pH 7.5, 37 °C

Protein | Km | kcat | kcat/Km
B1 | 1600 ± 270 µM | 4.8 ± 0.26 s⁻¹ | 3000 M⁻¹ s⁻¹
B2 | 1300 ± 230 µM | 1.5 ± 0.08 s⁻¹ | 1200 M⁻¹ s⁻¹
B3 | 1000 ± 100 µM | 3 ± 0.08 s⁻¹ | 3000 M⁻¹ s⁻¹
